Test results published in the Human Domainome abundance scans (Beltran et al. 2025).
± gives the uncertainty stated by the source.

B1: Tumor protein 63, residues 545 to 610; numbered along this chain, Q9H3D4 (parent)
chain: TDCSIVSFLARLGCSSCLDYFTTQGLTTIYQIEHYSMDDLASLKIPEQFRHAIWKGILDHRQLHEF

Variants of: B1
Test: abundance fitness (aPCA) (normalised: wild type 0, dead -1); higher = more abundant; growth selection in yeast, the domain comes from the species named
Conditions: Homo sapiens

| Variant | abundance fitness |
| --- | --- |
| TDCSIVSFLARLGCSSCLDYFTTQGLTTIYQIEHYSMDDLVSLKIPEQFRHAIWKGILDHRQLHEF [A41V] | -0.002 ± 0.023 |
| TDCSIVSFLARLGCSSCLDYFTTQGLTTIYQIEHYSMDDLSSLKIPEQFRHAIWKGILDHRQLHEF [A41S] | -0.04 ± 0.033 |
| TDCSIVSFLARLGCSSCLDYFTTQGLTTIYQIEHYSMDDLASLKIPEQIRHAIWKGILDHRQLHEF [F49I] | -0.168 ± 0.035 |
| TDCSIVSFLARLGCSSCLDYFTTQGLTTYYQIEHYSMDDLASLKIPEQFRHAIWKGILDHRQLHEF [I29Y] | -0.049 ± 0.063 |
| TDCSIVSFLARLGCSSCLDYFTTQGLTTIYQIEHYSMDDLASLKIPIQFRHAIWKGILDHRQLHEF [E47I] | -0.045 ± 0.036 |
| TDCSIVSFLARLGCSSCLDYFTCQGLTTIYQIEHYSMDDLASLKIPEQFRHAIWKGILDHRQLHEF [T23C] | -0.037 ± 0.058 |
| TDCSIVSFLARLGCSSCKDYFTTQGLTTIYQIEHYSMDDLASLKIPEQFRHAIWKGILDHRQLHEF [L18K] | 0.061 ± 0.12 |
| TDCSIVSFLARLGCSSCIDYFTTQGLTTIYQIEHYSMDDLASLKIPEQFRHAIWKGILDHRQLHEF [L18I] | -0.036 ± 0.029 |
| TDCSIISFLARLGCSSCLDYFTTQGLTTIYQIEHYSMDDLASLKIPEQFRHAIWKGILDHRQLHEF [V6I] | -0.034 ± 0.032 |
| TDCSIVSFLARLGCSSCLDYFTTQGLTTIYQIEHYSMWDLASLKIPEQFRHAIWKGILDHRQLHEF [D38W] | -0.085 ± 0.04 |
| TDCSIVSFLARLGCSSCLDYFTTQGLTTIYQIEHYSMDDLASLKIPEQFRHAIWKGILDHRQLGEF [H64G] | -0.035 ± 0.021 |
| TDCSIVSFLARLGCSSCLLYFTTQGLTTIYQIEHYSMDDLASLKIPEQFRHAIWKGILDHRQLHEF [D19L] | -0.089 ± 0.019 |
| TDCSIVSFLARLGCSSCLDYFTTQGLTTIYQIEHYSMDDNASLKIPEQFRHAIWKGILDHRQLHEF [L40N] | -0.888 ± 0.13 |
| TDCSIVSFLARLGCSSCLDYFTTQGLTTIYQIEHYSMDDRASLKIPEQFRHAIWKGILDHRQLHEF [L40R] | -1.01 ± 0.067 |
| TDCSIVSFLARLGCSSCLDYFTTQGLTTIYQIEHYSMDDLASLKIPEHFRHAIWKGILDHRQLHEF [Q48H] | -0.005 ± 0.057 |
| TDCSIVSFLARLGCSSCLDYFTTQGLTTIYQIEHYSMDDLASLKIPELFRHAIWKGILDHRQLHEF [Q48L] | -0.063 ± 0.027 |
| TDCSIVSFLARLGCSSCLDYFTTQGLTTIYQIEHYSMDDLASLKIPENFRHAIWKGILDHRQLHEF [Q48N] | -0.006 ± 0.05 |
| TDCSIVSFLARLGCSSCLDYFTTQGLTTIYQIEHYSMDDLASLKIPEAFRHAIWKGILDHRQLHEF [Q48A] | -0.024 ± 0.023 |
| TDCSIVSFLARLGCSSCLDYFTTQGLTTIGQIEHYSMDDLASLKIPEQFRHAIWKGILDHRQLHEF [Y30G] | 0 ± 0.027 |
| TDCSIVSCLARLGCSSCLDYFTTQGLTTIYQIEHYSMDDLASLKIPEQFRHAIWKGILDHRQLHEF [F8C] | -0.583 ± 0.12 |
| TDCSIVSFLARLGCSSCLDYFTTQGLTTIYQIEHYSMDDLASLKILEQFRHAIWKGILDHRQLHEF [P46L] | -0.976 ± 0.065 |

| Variant | abundance fitness |
| --- | --- |
| TDCSIVSFLARLGCSSCLDGFTTQGLTTIYQIEHYSMDDLASLKIPEQFRHAIWKGILDHRQLHEF [Y20G] | -0.268 ± 0.022 |
| TDCSIVSFLARLGCSSCLDYFTTQGLTTIYQIEHYSMDDLASLDIPEQFRHAIWKGILDHRQLHEF [K44D] | -0.011 ± 0.038 |
| TDCSIVSFLARLGCSSCLDYFTTQGLTTIYQIEHYSMDDLASLLIPEQFRHAIWKGILDHRQLHEF [K44L] | -0.076 ± 0.023 |
| TDCSIVSFLARLGCSSCLDYFTTQGLTTIYQIEHYSMDDLASLMIPEQFRHAIWKGILDHRQLHEF [K44M] | -0.039 ± 0.033 |
| TDCSIVSFLARLGCSSCLDYFTTQGLTTIYQIEHYSMDDLADLKIPEQFRHAIWKGILDHRQLHEF [S42D] | 0.008 ± 0.041 |
| TDCSIVSFLARLGCSSCLDYFTTQGLTTIYQIEHYSMDDLAVLKIPEQFRHAIWKGILDHRQLHEF [S42V] | -0.011 ± 0.023 |
| TDCSIVSFLARLGCSSCLDYFMTQGLTTIYQIEHYSMDDLASLKIPEQFRHAIWKGILDHRQLHEF [T22M] | -0.098 ± 0.039 |
| TDCSIVSFLARLGCSSCLDYFTTQGLTTIYQIEHYSMDDLASLKIPEQFRHAIWKGDLDHRQLHEF [I57D] | -0.962 ± 0.089 |
| TDCSIVSFLARLGCSSCLDYFTTQGLTTIYQIEHYSMDDLASLKIPEQFRHAIWKGNLDHRQLHEF [I57N] | -0.799 ± 0.082 |
| TDCSIVSFLARLGCSSCLDYFTTQGLTTIYQIEHYSMDDLASLKIPEQFRHAIWKGALDHRQLHEF [I57A] | -0.369 ± 0.03 |
| TDCSIVSFLARLGCSSCLDYFTTQGLTTIYQIEHYSMDDLASLKIPEQFRHAIWKGFLDHRQLHEF [I57F] | -0.203 ± 0.04 |
| TDCSIVSFLARLGCSSCLDYFTTQGLTTIYQIEHYSMDSLASLKIPEQFRHAIWKGILDHRQLHEF [D39S] | -0.143 ± 0.029 |
| TDCSIVSFLARLGCSSCLDYFTTQGLTTIYQIEHYSMDLLASLKIPEQFRHAIWKGILDHRQLHEF [D39L] | -0.238 ± 0.025 |
| TDCSIVSFLARLGCSSCLDYFTTQGLTTIYQIEHYSMDALASLKIPEQFRHAIWKGILDHRQLHEF [D39A] | -0.108 ± 0.03 |
| TDCSIVSFLARYGCSSCLDYFTTQGLTTIYQIEHYSMDDLASLKIPEQFRHAIWKGILDHRQLHEF [L12Y] | -0.048 ± 0.034 |
| TDCSIVSFLARLGCSSCLDYFTTQGLTTIYQGEHYSMDDLASLKIPEQFRHAIWKGILDHRQLHEF [I32G] | -0.832 ± 0.037 |
| TDCSIVSFLARLGCSSCLDYFTTQGLTTIYQIEHYSMDDLASLKIPEQFRHAILKGILDHRQLHEF [W54L] | 0.031 ± 0.067 |
| TDCSIVSFLARLGCSSCLDYFTTQGLTTIYQIEHYSMDDLASLKIPEQFRHAIVKGILDHRQLHEF [W54V] | -0.078 ± 0.19 |
| TDCSIVSFLARLGCSSCLDYFTTQGLTTIYQIEHYSMDDLASLKIPEQFRHAINKGILDHRQLHEF [W54N] | -0.03 ± 0.12 |
| TDCSIVSFLARLGCSDCLDYFTTQGLTTIYQIEHYSMDDLASLKIPEQFRHAIWKGILDHRQLHEF [S16D] | -0.012 ± 0.032 |
